Measurements published in patent US11491212.

These proteins were tested against Factor X, P00742.
Sequence of Factor X, P00742 (P00742 whole entry, looked up): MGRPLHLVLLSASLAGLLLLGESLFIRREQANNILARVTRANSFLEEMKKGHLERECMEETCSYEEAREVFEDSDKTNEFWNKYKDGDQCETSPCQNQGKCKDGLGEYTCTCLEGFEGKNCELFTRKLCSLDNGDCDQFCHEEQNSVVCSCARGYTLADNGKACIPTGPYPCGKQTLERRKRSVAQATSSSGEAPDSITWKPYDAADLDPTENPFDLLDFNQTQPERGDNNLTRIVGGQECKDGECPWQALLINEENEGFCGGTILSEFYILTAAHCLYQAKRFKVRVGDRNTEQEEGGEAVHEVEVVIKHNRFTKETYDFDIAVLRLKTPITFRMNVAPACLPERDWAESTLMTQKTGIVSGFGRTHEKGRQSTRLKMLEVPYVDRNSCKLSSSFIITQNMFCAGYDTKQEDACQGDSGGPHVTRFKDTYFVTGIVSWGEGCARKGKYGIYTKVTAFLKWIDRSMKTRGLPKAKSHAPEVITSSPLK

| Protein | % of WT kcat/KM [%] | kcat/KM [M⁻¹ s⁻¹] | KM [µM] |
| --- | --- | --- | --- |
| FIXa Y155F/K247N/N249S/R338E/T343R (protein) chain 1: not shown chain 2: not shown | 1579 | 7.3e+08 |  |
| FIXa-Y155F/K228N/I251S/R318Y/R338E/R403E/E410N (protein) chain 1: not shown chain 2: not shown |  | 1.4e+08 |  |
| FIXa Y155F/K247N/N249S/R338E/R403E (protein) chain 1: not shown chain 2: not shown | 299 | 1.4e+08 |  |
| FIXa-K228N/I251S/R318Y/R338E/R403E/E410N (protein) chain 1: not shown chain 2: not shown |  | 2.1e+08 |  |
| FIXa R318Y/R338E/E410N (mature FIX numbering) (protein) chain 1: not shown chain 2: not shown | 770 |  |  |
| FIXa-Y155F/K247N/N249S/R318Y/R338E/T343R/R403E/E410N (protein) chain 1: not shown chain 2: not shown |  | 4e+08 |  |
| FIXa-N260S/R318Y/R338E/T343R/R403E/E410N (protein) chain 1: not shown chain 2: not shown |  | 2.9e+08 |  |
| FIXa-Y155F/R338E/T343R/R403E/E410N (protein) chain 1: not shown chain 2: not shown |  | 2.4e+08 |  |
| FIXa K228N/R338E/R403E (mature FIX numbering) (protein) chain 1: not shown chain 2: not shown | 108 |  |  |
| FIXa-R318Y/T343R/R403E/E410N (protein) chain 1: not shown chain 2: not shown |  | 5.8e+07 |  |
| FIXa-Y155F/K247N/N249S/R338E/R403E (protein) chain 1: not shown chain 2: not shown |  |  | 0.0409 |
| FIXa-Y155F/K247N/N249S/R338E/T343R (protein) chain 1: not shown chain 2: not shown |  |  | 0.0153 |
| FIXa-Y155F/K247N/N249S/R318Y/R338E/T343R/E410N (protein) chain 1: not shown chain 2: not shown |  |  | 0.0177 |
| FIXa-Y155F/K247N/N249S/N260S/R318Y/R338E/R403E/E410N (protein) chain 1: not shown chain 2: not shown |  | 5.7e+07 |  |
